IntAct's records for PubMed 32296183

B1: Catenin alpha-3 (Homo sapiens), Q9UI47-2 (parent)
chain: MSAETPITLNIDPQDLQVQTFTVEKLLEPLIIQVTTLVNCPQNPSSRKKGRSKRASVLLASVEEATWNLLDKGEKIAQEATVLKDELTASLEEVRKESEALKVSAERFTDDPCFLPKREAVVQAARALLAAVTRLLILADMIDVMCLLQHVSAFQRTFESLKNVANKSDLQKTYQKLGKELENLDYLAFKRQQDLKSPNQRDEIAGARASLKENSPLLHSICSACLEHSDVASLKASKDTVCEEIQNALNVISNASQGIQNMTTPPEPQAATLGSALDELENLIVLNPLTVTEEEIRPSLEKRLEAIISGAALLADSSCTRDLHRERIIAECNAIRQALQDLLSEYMNNAGKKERSNTLNIALDNMCKKTRDLRRQLRKAIIDHVSDSFLDTTVPLLVLIEAAKNGREKEIKEYAAIFHEHTSRLVEVANLACSMSTNEDGIKIVKIAANHLETLCPQIINAALALAARPKSQAVKNTMEMYKRTWENHIHVLTEAVDDITSIDDFLAVSGMFLFF
partner: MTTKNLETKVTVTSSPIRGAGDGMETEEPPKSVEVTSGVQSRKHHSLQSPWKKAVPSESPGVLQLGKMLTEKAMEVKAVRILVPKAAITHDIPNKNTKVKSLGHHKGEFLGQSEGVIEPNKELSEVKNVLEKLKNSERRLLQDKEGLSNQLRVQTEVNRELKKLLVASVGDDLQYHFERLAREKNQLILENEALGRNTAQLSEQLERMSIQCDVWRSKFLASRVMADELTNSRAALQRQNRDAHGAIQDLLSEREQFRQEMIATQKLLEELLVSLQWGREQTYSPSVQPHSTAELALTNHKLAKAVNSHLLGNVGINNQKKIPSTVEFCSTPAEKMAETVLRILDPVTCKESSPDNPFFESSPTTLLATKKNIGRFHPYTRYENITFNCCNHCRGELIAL
B2: Dolichol kinase (Homo sapiens), Q9UPQ8 (parent)
chain: MTRECPSPAPGPGAPLSGSVLAEAAVVFAVVLSIHATVWDRYSWCAVALAVQAFYVQYKWDRLLQQGSAVFQFRMSANSGLLPASMVMPLLGLVMKERCQTAGNPFFERFGIVVAATGMAVALFSSVLALGITRPVPTNTCVILGLAGGVIIYIMKHSLSVGEVIEVLEVLLIFVYLNMILLYLLPRCFTPGEALLVLGGISFVLNQLIKRSLTLVESQGDPVDFFLLVVVVGMVLMGIFFSTLFVFMDSGTWASSIFFHLMTCVLSLGVVLPWLHRLIRRNPLLWLLQFLFQTDTRIYLLAYWSLLATLACLVVLYQNAKRSSSESKKHQAPTIARKYFHLIVVATYIPGIIFDRPLLYVAATVCLAVFIFLEYVRYFRIKPLGHTLRSFLSLFLDERDSGPLILTHIYLLLGMSLPIWLIPRPCTQKGSLGGARALVPYAGVLAVGVGDTVASIFGSTMGEIRWPGTKKTFEGTMTSIFAQIISVALILIFDSGVDLNYSYAWILGSISTVSLLEAYTTQIDNLLLPLYLLILLMA
partner: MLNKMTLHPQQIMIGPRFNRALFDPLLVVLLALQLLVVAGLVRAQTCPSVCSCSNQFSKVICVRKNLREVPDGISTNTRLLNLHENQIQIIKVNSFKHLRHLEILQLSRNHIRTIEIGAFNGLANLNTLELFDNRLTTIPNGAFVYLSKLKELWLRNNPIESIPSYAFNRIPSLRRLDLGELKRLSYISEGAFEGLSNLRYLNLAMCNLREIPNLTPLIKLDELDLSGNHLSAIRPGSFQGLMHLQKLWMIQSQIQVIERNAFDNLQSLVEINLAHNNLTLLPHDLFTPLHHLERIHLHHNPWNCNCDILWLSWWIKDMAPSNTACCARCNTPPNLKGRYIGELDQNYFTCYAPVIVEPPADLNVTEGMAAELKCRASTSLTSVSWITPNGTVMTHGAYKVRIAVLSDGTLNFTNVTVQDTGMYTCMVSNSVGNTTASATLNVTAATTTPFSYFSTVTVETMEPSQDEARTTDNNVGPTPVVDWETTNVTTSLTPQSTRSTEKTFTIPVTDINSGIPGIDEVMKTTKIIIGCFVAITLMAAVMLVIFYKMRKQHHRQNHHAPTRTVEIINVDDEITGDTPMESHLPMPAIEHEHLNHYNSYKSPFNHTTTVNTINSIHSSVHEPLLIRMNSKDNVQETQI
B3: Ceroid-lipofuscinosis neuronal protein 6 (Homo sapiens), Q9NWW5 (parent)
chain: MEATRRRQHLGATGGPGAQLGASFLQARHGSVSADEAARTAPFHLDLWFYFTLQNWVLDFGRPIAMLVFPLEWFPLNKPSVGDYFHMAYNVITPFLLLKLIERSPRTLPRSITYVSIIIFIMGASIHLVGDSVNHRLLFSGYQHHLSVRENPIIKNLKPETLIDSFELLYYYDEYLGHCMWYIPFFLILFMYFSGCFTASKAESLIPGPALLLVAPSGLYYWYLVTEGQIFILFIFTFFAMLALVLHQKRKRLFLDSNGLFLFSSFALTLLLVALWVAWLWNDPVLRKKYPGVIYVPEPWAFYTLHVSSRH
partner: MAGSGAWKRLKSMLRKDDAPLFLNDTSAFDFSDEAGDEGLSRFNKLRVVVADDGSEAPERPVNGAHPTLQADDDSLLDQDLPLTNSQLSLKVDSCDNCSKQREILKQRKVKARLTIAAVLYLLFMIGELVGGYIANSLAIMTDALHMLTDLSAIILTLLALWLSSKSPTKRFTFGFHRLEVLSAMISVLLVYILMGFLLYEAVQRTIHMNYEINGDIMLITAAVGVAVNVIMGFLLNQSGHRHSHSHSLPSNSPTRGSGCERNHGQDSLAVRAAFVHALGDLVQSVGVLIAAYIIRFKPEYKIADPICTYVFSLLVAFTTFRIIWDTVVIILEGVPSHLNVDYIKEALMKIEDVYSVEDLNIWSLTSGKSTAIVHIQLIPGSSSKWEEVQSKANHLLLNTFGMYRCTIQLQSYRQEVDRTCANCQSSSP
B4: Golgi SNAP receptor complex member 2 (Homo sapiens), O14653 (parent)
chain: MDPLFQQTHKQVHEIQSCMGRLETADKQSVHIVENEIQASIDQIFSRLERLEILSSKEPPNKRQNARLRVDQLKYDVQHLQTALRNFQHRRHAREQQERQREELLSRTFTTNDSDTTIPMDESLQFNSSLQKVHNGMDDLILDGHNILDGLRTQRLTLKGTQKKILDIANMLGLSNTVMRLIEKRAFQDKYFMIGGMLLTCVVMFLVVQYLT
partner: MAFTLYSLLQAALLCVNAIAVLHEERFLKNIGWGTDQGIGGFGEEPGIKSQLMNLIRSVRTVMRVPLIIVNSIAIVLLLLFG
B5: Very-long-chain enoyl-CoA reductase (Homo sapiens), Q9NZ01 (parent)
chain: MKHYEVEILDAKTREKLCFLDKVEPHATIAEIKNLFTKTHPQWYPARQSLRLDPKGKSLKDEDVLQKLPVGTTATLYFRDLGAQISWVTVFLTEYAGPLFIYLLFYFRVPFIYGHKYDFTSSRHTVVHLACICHSFHYIKRLLETLFVHRFSHGTMPLRNIFKNCTYYWGFAAWMAYYINHPLYTPPTYGAQQVKLALAIFVICQLGNFSIHMALRDLRPAGSKTRKIPYPTKNPFTWLFLLVSCPNYTYEVGSWIGFAIMTQCLPVALFSLVGFTQMTIWAKGKHRSYLKEFRDYPPLRMPIIPFLL
partner: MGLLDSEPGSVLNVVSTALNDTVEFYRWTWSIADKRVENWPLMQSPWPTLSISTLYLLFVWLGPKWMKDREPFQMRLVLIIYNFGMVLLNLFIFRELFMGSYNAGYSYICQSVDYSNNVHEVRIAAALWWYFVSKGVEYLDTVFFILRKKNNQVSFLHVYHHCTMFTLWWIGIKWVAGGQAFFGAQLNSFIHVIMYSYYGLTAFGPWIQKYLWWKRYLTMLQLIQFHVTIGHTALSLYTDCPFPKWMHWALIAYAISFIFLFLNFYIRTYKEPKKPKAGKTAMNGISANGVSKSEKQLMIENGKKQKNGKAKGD
B6: Succinate--CoA ligase [ADP-forming] subunit beta, mitochondrial (Homo sapiens), Q9P2R7 (parent)
chain: MAASMFYGRLVAVATLRNHRPRTAQRAAAQVLGSSGLFNNHGLQVQQQQQRNLSLHEYMSMELLQEAGVSVPKGYVAKSPDEAYAIAKKLGSKDVVIKAQVLAGGRGKGTFESGLKGGVKIVFSPEEAKAVSSQMIGKKLFTKQTGEKGRICNQVLVCERKYPRREYYFAITMERSFQGPVLIGSSHGGVNIEDVAAESPEAIIKEPIDIEEGIKKEQALQLAQKMGFPPNIVESAAENMVKLYSLFLKYDATMIEINPMVEDSDGAVLCMDAKINFDSNSAYRQKKIFDLQDWTQEDERDKDAAKANLNYIGLDGNIGCLVNGAGLAMATMDIIKLHGGTPANFLDVGGGATVHQVTEAFKLITSDKKVLAILVNIFGGIMRCDVIAQGIVMAVKDLEIKIPVVVRLQGTRVDDAKALIADSGLKILACDDLDEAARMVVKLSEIVTLAKQAHVDVKFQLPI
partner: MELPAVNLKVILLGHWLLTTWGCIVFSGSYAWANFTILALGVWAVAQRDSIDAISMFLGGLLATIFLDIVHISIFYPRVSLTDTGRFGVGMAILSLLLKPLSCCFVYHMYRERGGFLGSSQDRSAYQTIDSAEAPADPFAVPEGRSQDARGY
B7: Transmembrane protein 43 (Homo sapiens), Q9BTV4 (parent)
chain: MAANYSSTSTRREHVKVKTSSQPGFLERLSETSGGMFVGLMAFLLSFYLIFTNEGRALKTATSLAEGLSLVVSPDSIHSVAPENEGRLVHIIGALRTSKLLSDPNYGVHLPAVKLRRHVEMYQWVETEESREYTEDGQVKKETRYSYNTEWRSEIINSKNFDREIGHKNPSAMAVESFMATAPFVQIGRFFLSSGLIDKVDNFKSLSLSKLEDPHVDIIRRGDFFYHSENPKYPEVGDLRVSFSYAGLSGDDPDLGPAHVVTVIARQRGDQLVPFSTKSGDTLLLLHHGDFSAEEVFHRELRSNSMKTWGLRAAGWMAMFMGLNLMTRILYTLVDWFPVFRDLVNIGLKAFAFCVATSLTLLTVAAGWLFYRPLWALLIAGLALVPILVARTRVPAKKLE
partner: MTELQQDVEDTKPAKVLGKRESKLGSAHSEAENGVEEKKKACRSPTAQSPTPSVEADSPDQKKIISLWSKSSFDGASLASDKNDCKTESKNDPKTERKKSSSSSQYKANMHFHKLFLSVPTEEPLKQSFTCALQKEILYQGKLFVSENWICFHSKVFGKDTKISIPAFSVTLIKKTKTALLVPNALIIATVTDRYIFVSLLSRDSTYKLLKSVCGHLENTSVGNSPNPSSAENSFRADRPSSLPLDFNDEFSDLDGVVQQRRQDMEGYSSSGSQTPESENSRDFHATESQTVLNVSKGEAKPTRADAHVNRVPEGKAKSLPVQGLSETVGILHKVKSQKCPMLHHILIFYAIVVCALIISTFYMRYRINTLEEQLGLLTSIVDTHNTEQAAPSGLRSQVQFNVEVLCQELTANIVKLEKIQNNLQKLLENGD

Variants of: B1
Conditions: with go45_human BLZF1, Q9H2G9

| Variant | effect of a mutation on the interaction |
| --- | --- |
| V94D | disrupting interaction strength |

Variants of: B2
Conditions: with lrc4c_human LRRC4C

| Variant | effect of a mutation on the interaction |
| --- | --- |
| Y441S | disrupting interaction strength |

Variants of: B3
Conditions: with znt4_human SLC30A4, O14863

| Variant | effect of a mutation on the interaction |
| --- | --- |
| L47F | disrupting interaction strength |
| G123D | disrupting interaction strength |

Variants of: B4
Conditions: with ir3ip_human IER3IP1, Q9Y5U9

| Variant | effect of a mutation on the interaction |
| --- | --- |
| G144W | with no effect |

Variants of: B5
Conditions: with elov4_human ELOVL4, Q9GZR5

| Variant | effect of a mutation on the interaction |
| --- | --- |
| P182L | disrupting interaction strength |

Variants of: B6
Conditions: with AGTRAP

| Variant | effect of a mutation on the interaction |
| --- | --- |
| G118R | disrupting interaction strength |
| D251N | disrupting interaction strength |

Variants of: B7
Conditions: with grm2b_human GRAMD2B

| Variant | effect of a mutation on the interaction |
| --- | --- |
| I91V | with no effect |
